According to patent publication US20050233313:

System: β-galactosidase substrate with a cleavage cassette (decapeptide corresponding to an HIV protease cleavage site) inserted into its open reading frame [β-galactosidase: P00722]
Sequence (P00722 2-1024): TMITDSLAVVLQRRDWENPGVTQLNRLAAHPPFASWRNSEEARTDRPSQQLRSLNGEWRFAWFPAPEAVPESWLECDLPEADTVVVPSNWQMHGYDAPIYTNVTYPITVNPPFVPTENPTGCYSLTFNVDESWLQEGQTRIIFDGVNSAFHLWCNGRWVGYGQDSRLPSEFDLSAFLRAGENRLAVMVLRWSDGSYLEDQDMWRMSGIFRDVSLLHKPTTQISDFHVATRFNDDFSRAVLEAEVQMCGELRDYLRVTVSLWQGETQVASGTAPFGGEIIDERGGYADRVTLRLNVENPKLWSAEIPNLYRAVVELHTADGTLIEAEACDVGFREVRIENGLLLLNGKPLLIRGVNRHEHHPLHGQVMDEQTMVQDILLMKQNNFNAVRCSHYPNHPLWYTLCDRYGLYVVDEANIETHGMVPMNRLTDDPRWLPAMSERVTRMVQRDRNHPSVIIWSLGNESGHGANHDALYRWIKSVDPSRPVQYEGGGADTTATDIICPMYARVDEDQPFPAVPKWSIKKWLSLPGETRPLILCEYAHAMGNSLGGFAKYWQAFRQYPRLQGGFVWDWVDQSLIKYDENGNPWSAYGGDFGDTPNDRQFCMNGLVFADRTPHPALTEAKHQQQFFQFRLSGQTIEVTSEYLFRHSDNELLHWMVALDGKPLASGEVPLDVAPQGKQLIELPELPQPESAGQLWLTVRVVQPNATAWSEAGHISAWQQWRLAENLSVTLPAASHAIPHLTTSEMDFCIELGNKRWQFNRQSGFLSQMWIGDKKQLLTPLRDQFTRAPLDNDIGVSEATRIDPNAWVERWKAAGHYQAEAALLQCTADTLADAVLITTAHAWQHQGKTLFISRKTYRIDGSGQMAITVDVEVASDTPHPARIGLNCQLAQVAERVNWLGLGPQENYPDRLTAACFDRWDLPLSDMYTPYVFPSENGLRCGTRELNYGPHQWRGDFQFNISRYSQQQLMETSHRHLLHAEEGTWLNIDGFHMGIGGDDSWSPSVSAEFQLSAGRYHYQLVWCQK

Substance | % Cleavage
HIV-1 protease D25A (99 residues, HXB2) expressed from pMono | 0%
HIV-1 protease F99A (99 residues, HXB2) expressed from pMono | 0%
HIV-1 protease I3A (99 residues, HXB2) expressed from pMono | 0%
HIV-1 protease L97A (99 residues, HXB2) expressed from pMono | 0%
HIV-1 protease N98A (99 residues, HXB2) expressed from pMono | 68%
HIV-1 protease P1A (99 residues, HXB2) expressed from pMono | 92%
HIV-1 protease Q2A (99 residues, HXB2) expressed from pMono | 96%
HIV-1 protease T4A (99 residues, HXB2) expressed from pMono | 96%
HIV-1 protease T96A (99 residues, HXB2) expressed from pMono | 14%
